# Values of other authors in patent US20190382462A1, “METHODS AND COMPOSITIONS FOR TREATING HPA HYPERACTIVITY” (priority 2017, published 2019).
# Where two headings read alike, the source gives them in different places. Where no end group is shown, it is not given here.
# Tests used:
# [1] = human serum
# CRF-BP = molecular target: T1, CRF-BP (Homo sapiens, UniProt P24387)
# T1 sequence (P24387 25-322): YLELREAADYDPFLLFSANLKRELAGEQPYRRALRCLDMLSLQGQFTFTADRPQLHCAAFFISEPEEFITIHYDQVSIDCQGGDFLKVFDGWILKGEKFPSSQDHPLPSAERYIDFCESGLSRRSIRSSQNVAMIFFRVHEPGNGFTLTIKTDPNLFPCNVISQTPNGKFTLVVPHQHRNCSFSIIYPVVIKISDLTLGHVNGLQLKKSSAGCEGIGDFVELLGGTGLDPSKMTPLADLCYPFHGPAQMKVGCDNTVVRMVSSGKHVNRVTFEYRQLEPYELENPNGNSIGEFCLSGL
# CRF1 = molecular target: T2, CRF1 (Homo sapiens, UniProt P34998)
# T2 sequence (P34998 24-415): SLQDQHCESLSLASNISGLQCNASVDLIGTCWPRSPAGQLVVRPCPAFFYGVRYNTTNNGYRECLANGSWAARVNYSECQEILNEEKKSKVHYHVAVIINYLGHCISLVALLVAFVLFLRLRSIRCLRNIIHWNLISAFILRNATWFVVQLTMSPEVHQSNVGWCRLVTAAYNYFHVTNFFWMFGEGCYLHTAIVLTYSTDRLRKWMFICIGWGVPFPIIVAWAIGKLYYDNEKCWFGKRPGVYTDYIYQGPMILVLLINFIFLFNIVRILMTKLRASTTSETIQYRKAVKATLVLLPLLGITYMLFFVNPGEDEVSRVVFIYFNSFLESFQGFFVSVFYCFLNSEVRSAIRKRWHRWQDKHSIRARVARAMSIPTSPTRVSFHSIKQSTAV
substance,measurement,setting,value
Factor IX: other formulations of Factor IX alone,half-life,"b170, Alprolix: terminal half-life in clinical trials",~18 h
Human transferrin: highly abundant serum glycoprotein that carries iron,half-life,[1],170 to 288 h
"Ucn2: CRF-related peptide, selective CRF2 agonist (IVLSLDVPIGLLQILLEQARARAAREQATTNARILARVGHC; ends and bridges not checked; UniProt Q96RP3 72-112, looked up)",affinity for CRF-BP,CRF-BP,neither Ucn2 nor Ucn3 exhibits appreciable affinity
"Ucn3: CRF-related peptide, selective CRF2 agonist (FTLSLDVPTNIMNLLFNIAKAKNLRAQAAANAHLMAQI; ends and bridges not checked; UniProt Q969E3 120-157, looked up)",affinity for CRF-BP,CRF-BP,neither Ucn2 nor Ucn3 exhibits appreciable affinity
"aglycosylated form of human transferrin: aglycosylated form, about 2-8% of the total transferrin pool",half-life,[1],336 to 408 h
bevacizumab: therapeutic antibody,circulating serum concentration reported for therapeutic antibody,in vivo,10 to 30 µg/mL
darbepoetin alfa,serum half-life compared to epoetin alpha and epoetin beta,in vivo,3 fold
etanercept,half-life,"b287, b290",roughly 70 hours
"urocortin 1 (DNPSLSIDLTFHLLRTLLELARTQSQRERAEQNRIIFDSV; ends and bridges not checked; UniProt P55089 83-122, looked up) [Ucn1]",binding affinity for CRF1 relative to CRF,CRF1,threefold higher
